Where no end group is shown, it is not given here.
T1: Mtw1-Nnf1 heterodimer (MN) (S. cerevisiae, UniProt P39731 1-289; P47149 1-201)
T1 construct: Mtw1, S. cerevisiae; Nnf1, S. cerevisiae; also called Mtw1/Nnf1 dimer; MN complex; source: E. coli BL21 (DE3), purified (HisTrap, Q flow-through, SEC); not shown: His6, N-terminal, kept
T1 sequence (looked up) 1: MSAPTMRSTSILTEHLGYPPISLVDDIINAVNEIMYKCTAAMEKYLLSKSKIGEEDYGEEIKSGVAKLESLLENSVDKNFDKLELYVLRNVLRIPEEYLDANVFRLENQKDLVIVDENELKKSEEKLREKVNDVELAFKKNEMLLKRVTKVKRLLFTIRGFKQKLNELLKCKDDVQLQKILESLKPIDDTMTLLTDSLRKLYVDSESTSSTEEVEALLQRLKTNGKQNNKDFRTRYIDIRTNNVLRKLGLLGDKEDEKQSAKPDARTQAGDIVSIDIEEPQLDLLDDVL
T1 sequence (looked up) 2: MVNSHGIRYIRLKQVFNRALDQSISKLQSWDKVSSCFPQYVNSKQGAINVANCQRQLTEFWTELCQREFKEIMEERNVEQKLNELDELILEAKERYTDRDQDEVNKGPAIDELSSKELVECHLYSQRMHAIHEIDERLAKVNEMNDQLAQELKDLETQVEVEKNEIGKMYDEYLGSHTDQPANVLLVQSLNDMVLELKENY


Columns and labels:
Ame1‐Okp1 (AO) complex = assay: Analytical SEC of Mtw1c wild-type and mutants with Ame1-Okp1 (AO); type: binding, budding yeast; settings: 10 μM each
Experimental: Figure 3 Analysis of Mtw1 interface mutants in vivo • Structure of the Mtw1c head I bound to Mif2 and list of key residues constituting interface I (Mif2 binding) and interface II (putative Ame1 binding) from Dimitrova et al. • Analysis of these Mtw1 mutants in vivo using the anchor‐away technique. Mtw1‐FRB strains containing RPL13‐FKBP12 for cytoplasmic anchoring and additionally harboring the indicated rescue alleles were plated in serial dilution on YEPD or YEPD + rapamycin plates incubated at 30°C. • Tetrad analysis of Mtw1‐wt or mutants. […]
The GST pulldown experiment was performed using BSA‐preblocked GSH Sepharose beads. […] Beads were washed twice in pulldown buffer, before Laemmli sample buffer was added to the beads (GST pulldown) or proteins were eluted in pulldown buffer supplemented with 1 mg/ml Flag peptide before addition of Laemmli sample buffer (Flag pulldown) and samples were analyzed on a Coomassie Brilliant Blue‐stained SDS–PAGE gel or Western blotting. […] Elution of proteins was monitored at 280 nm. 100 μl fractions were collected and analyzed by SDS–PAGE and Coomassie Brilliant Blue staining or Western blotting. […] After several washes with lysis buffer, proteins were eluted with 0.2 mg/ml 3xFlag peptide in lysis buffer, and fractions were analyzed by Western blotting. […]

[1] = system: hemizygous Mtw1 deletion strain; assay: Tetrad analysis, Mtw1 alleles; type: cell-based, budding yeast; settings: Mtw1 rescue construct only source of Mtw1
Experimental: Figure 3 Analysis of Mtw1 interface mutants in vivo • Structure of the Mtw1c head I bound to Mif2 and list of key residues constituting interface I (Mif2 binding) and interface II (putative Ame1 binding) from Dimitrova et al. • Analysis of these Mtw1 mutants in vivo using the anchor‐away technique. Mtw1‐FRB strains containing RPL13‐FKBP12 for cytoplasmic anchoring and additionally harboring the indicated rescue alleles were plated in serial dilution on YEPD or YEPD + rapamycin plates incubated at 30°C. • Tetrad analysis of Mtw1‐wt or mutants. Surviving spores in which the Mtw1‐wt or mutant rescue construct was the only source of Mtw1 are indicated in pink circles. • Western blotting confirming the expression of Mtw1‐6x‐Flag wt or mutant proteins in the Mtw1‐FRB strain background. • Analytical SEC runs and accompanying SDS–PAGE of Mtw1c‐wt or Mtw1c‐5A mutant (blue), AO (gray), or a stoichiometric combination of both complexes (green) at 10 μM each. Boxes indicate corresponding fractions in left and right panels.
The inability of these alleles to support growth was not due to lack of protein expression, although the steady‐state level was reduced compared to the wild‐type as shown by Western blotting (Fig 3D). We additionally confirmed that Mtw1 interface I mutants indeed confer a lethal phenotype by introducing the respective mutations into a hemizygous Mtw1 deletion strain and performing tetrad dissection. […] The more severe phenotype of Mtw1‐3A in the FRB system compared to tetrad dissection might be due to the additional mutations in the complex genetic background of the anchor‐away strain, which might make it more sensitive to the Mtw1‐3A mutation.
Serial fourfold dilutions of overnight cultures were prepared on 96‐well plates in minimal medium starting from OD600 of 0.6. The dilutions were spotted on YPD medium with and without rapamycin or on YP‐glucose and YP‐galactose and grown at 30°C for 3 days. […]

[2] = target: T1, Mtw1-Nnf1 heterodimer (MN); assay: ITC; peptide (Mif2 1-41 250 μM or Ame1 1-20 800 μM) titrated into 25 μM MN; 30 mM Hepes pH 7.5, 150 mM NaCl, 1 mM TCEP, 25°C; one set of binding sites; average of 3 or 4 experiments; settings: both partners purified
[3] = target: T1, Mtw1-Nnf1 heterodimer (MN); assay: fluorescence polarisation; 0.1 μM FITC-Mif2 1-41, MN added from 0 to 4 μM; 30 mM Hepes pH 7.5, 150 mM NaCl, 1 mM TCEP, 23°C; one set of binding sites; triplicates; settings: both partners purified

| Molecule | interaction of Mtw1c with AO, SEC (Ame1‐Okp1 (AO) complex) | viability of haploid spores [1] | Kd [2] [µM] | further results |
| --- | --- | --- | --- | --- |
| Mtw1‐5A: Mtw1 D25A D81A K82A E84A Y86A, interface I (protein, UniProt P39731 1-289, looked up, variant D25A D81A K82A E84A Y86A) Kinetochore-associated …: MSAPTMRSTSILTEHLGYPPISLVADIINAVNEIMYKCTAAMEKYLLSKSKIGEEDYGEEIKSGVAKLESLLENSVDKNFAALALAVLRNVLRIPEEYLDANVFRLENQKDLVIVDENELKKSEEKLREKVNDVELAFKKNEMLLKRVTKVKRLLFTIRGFKQKLNELLKCKDDVQLQKILESLKPIDDTMTLLTDSLRKLYVDSESTSSTEEVEALLQRLKTNGKQNNKDFRTRYIDIRTNNVLRKLGLLGDKEDEKQSAKPDARTQAGDIVSIDIEEPQLDLLDDVL | no longer able to interact efficiently with AO | inviable | – | – |
| Mtw1-8A: Mtw1 D25A N32A Y36A E73A D81A K82A E84A Y86A, interface I+II (protein, UniProt P39731 1-289, looked up, variant D25A N32A Y36A E73A D81A K82A E84A Y86A) Kinetochore-associated …: MSAPTMRSTSILTEHLGYPPISLVADIINAVAEIMAKCTAAMEKYLLSKSKIGEEDYGEEIKSGVAKLESLLANSVDKNFAALALAVLRNVLRIPEEYLDANVFRLENQKDLVIVDENELKKSEEKLREKVNDVELAFKKNEMLLKRVTKVKRLLFTIRGFKQKLNELLKCKDDVQLQKILESLKPIDDTMTLLTDSLRKLYVDSESTSSTEEVEALLQRLKTNGKQNNKDFRTRYIDIRTNNVLRKLGLLGDKEDEKQSAKPDARTQAGDIVSIDIEEPQLDLLDDVL | – | inviable | – | – |
| Mtw1‐3A: Mtw1 E73A N32A Y36A, interface II (protein, UniProt P39731 1-289, looked up, variant E73A N32A Y36A) Kinetochore-associated …: MSAPTMRSTSILTEHLGYPPISLVDDIINAVAEIMAKCTAAMEKYLLSKSKIGEEDYGEEIKSGVAKLESLLANSVDKNFDKLELYVLRNVLRIPEEYLDANVFRLENQKDLVIVDENELKKSEEKLREKVNDVELAFKKNEMLLKRVTKVKRLLFTIRGFKQKLNELLKCKDDVQLQKILESLKPIDDTMTLLTDSLRKLYVDSESTSSTEEVEALLQRLKTNGKQNNKDFRTRYIDIRTNNVLRKLGLLGDKEDEKQSAKPDARTQAGDIVSIDIEEPQLDLLDDVL | abolish AOc binding | viable, albeit slow‐growing | – | – |
| MDRDTKLAFRLRGSHSRRTD (peptide, UniProt P38313 1-20, looked up, Ame1 (CENP-U homolog), S. cerevisiae, residues 1-20; also called Ame1^1-20; Ame1_1-20) [Ame1-N peptide (aa 1-20)] | – | – | 12.5 | – |
| MDYMKLGLKSRKTGIDVKQDIPKDEYSMENIDDFFKDDETS (peptide, UniProt P35201 1-41, looked up, Mif2, S. cerevisiae, residues 1-41, unlabeled, used in ITC; also called Mif2-N) [Mif2^1-41 peptide] | – | – | 1.17 | – |
| MDYMKLGLKSRKTGIDVKQDIPKDEYSMENIDDFFKDDETS (peptide, UniProt P35201 1-41, looked up, also: FITC label (position not given here), Mif2, S. cerevisiae, residues 1-41; also called Mif2-N (FITC-labeled N-terminal Mif2 peptide)) [FITC-Mif2^1-41] | – | – | – | Kd [3]: 0.38 µM |

— article PMC7360964, “Auto‐inhibition of Mif2/CENP‐C ensures centromere‐dependent kinetochore assembly in budding yeast” (The EMBO Journal, 2020)
